The data set in a line: soluble on expression in E. coli; label from the status in PepcDB or PDB records.
For “MGSDKIHHHHHHMDEVLSFKRGRVPLLISMPHPGTRLTPAVDAGLVEEARALTDTDWHIPRLYDFAEELGASTLAAHYSRYVVDLNRPSDDKPLYSTATTGLYPDTLFDGRPLYREGMAPSAEERMRYLAEVWTPYHRTIAEELARLKAEFGYALLWDAHSIRSHVPHLFDGRLPDFNLGTNAGASCDPALAARLEAVCAAAEGYSHVLNGRFKGGHITRHYGQPEQHVHAVQLELAQCTYMDEQAPFAYRADLAEATRAVIRELLESLLAWGRERYA”, the “soluble on expression in E. coli” value is listed as “not soluble”.
With “MYKGYLIDLDGTMYRGEEQIEEASDFVKALGERGIPYLFVTNNSTRKPEQVAEKLVRFDIPAKAEQVFTTSMATANFIYERKQDATVYMIGEEGLHDALVEKGFELVDENPDFVVVGLDRDITYEKLAKACLAVRNGATFISTNGDIAIPTERGLLPGNGSLTSVVAVSTGVDPIFIGKPESIIMEQALKVLGIEKNEALMVGDNYDTDILAGINAGMHTLLVHTGVTTVEKLTEYEVQPTQVVHNLTEWIEKM” the entry was “not soluble”; with “YLSKYRNETGRSPSFLVNIDSSLKSLAHVDVIYPVGDPIFIHIYERGKERRYKPIEPLLKDDEFEFMDAILDIIMSRASDYPPAENEEEQEKNIEDVYKKTVS”, “soluble”; with “MAHHHHHHMFNYRREVLLDLWRKMPEAAACETVAPPEAVKGEEKRQQSVVKTQLDWLSEELKLSSSIIQSDYKVYAAFVHRRWVFMQLRRLAESALGNVGKRSKPAAPAGCQLGECAAAGEFDLPEEVLFWAKALLKEKRQGDALLAMDERNFHAWEFRRWVMYQLGQMEDLFVQSSIQFGPAVVGIKEREFASYMNGSAKSDRPRDLFFTPTEVKELNFTSAAVRRNFSNYSAWHQRGFIMQGALRRLQQRQWREEEADNNLRDGMLSQAWGQLEEDLTLLTTAIYCDPLDQSAWYYAKFLIHASKQLTALPFASTAVPIDITAKLDEVCLDLVGEERRLGEDMETYWPYLHLATSLLTSIKKSNDGNSSDVISDRQSALKLAREVWAALQPQGRHVNGDDDCIKCLQELCAHLTTADPLRAGMYKYFLSEVTTA”, “not soluble”.
With “GSHMKEPKLSPKQERFIEEYFINDMNATKAAIAAGYSKNSASAIGAENLQKPAIRARIDARLK” the entry was “soluble”; with “MRPLLLLALLGWLLLAEAKGDAKPEDNLLVLTVATKETEGFRRFKRSAQFFNYKIQALGLGEDWNVEKGTSAGGGQKVRLLKKALEKHADKEDLVILFTDSYDVLFASGPRELLKKFRQSRSQVVFSAEELIYPDRRLETKYPVVSDGKRFLGSGGFIGYAPNLSKLVAEWEGQDSDSDQLFYTKIFLDPEKREQINITLDHRCRIFQNLDGALDEVVLKFEMGHVRARNLAYDTLPVLIHGNGPTKLQLNYLGNYIPRFWTFETGCTVCDEGLRSLKGIGDEALPTVLVGVFIEQPTPFVSLFFQRLLRLHYPQKHMRLFIHNHEQHHKAQVEEFLAQHGSEYQSVKLVGPEVRMANADARNMGADLCRQDRSCTYYFSVDADVALTEPNSLRLLIQQNKNVIAPLMTRHGRLWSNFWGALSADGYYARSEDYVDIVQGRRVGVWNVPYISNIYLIKGSALRGELQSSDLFHHSKLDPDMAFCANIRQQDVFMFLTNRHTLGHLLSLDSYRTTHLHNDLWEVFSNPEDWKEKYIHQNYTKALAGKLVETPCPDVYWFPIFTEVACDELVEEMEHFGQWSLGNNKDNRIQGGYENVPTIDIHMNQIGFEREWHKFLLEYIAPMTEKLYPGYYTRAQFDLAFVVRYKPDEQPSLMPHHDASTFTINIALNRVGVDYEGGGCRFLRYNCSIRAPRKGWTLMHPGRLTHYHEGLPTTRGTRYIAVSFVDP”, “not soluble”; with “MGSDKIHHHHHHMSDLDRATLLDATGVAKSFGAVRALTDASLHVGAGEVVALMGANGAGKSTFVKILTGALRPDAGRVLIRGEVARTGSPAQARRSGLVPVYQEPSLIPDLDVADNLRLGDTPSDAVLHWMNELGINGLRFDDMISDLPLATLRILDLARALASQPDVLLLDEMTAALPTNLVENVLRVVRAQADAGCGVIYISHRFTEIAELCDSATILRDGRTVGDLQIEPGVENRCVELMLGAKLSLDKRDAGALRQNTGVPRLRASQIAVAPTVSDVSFDLYPGEVLGVVALEGQGQDEVFNVLSGHQKPTGGALQVDGTSVSFSHPADAIAAGLSYVPGDRAEALLRERSVRENIALPFSARLRDWGPLKTRHERHRVDHAIEKLQIDTRAQGEVQRLSGGNQQKVTIGRWLAHGVRTLLLFDPTRGIDVRTKRQIYPLVRELAEQGAAVLFYTSELDEIPLACDRAIVIFNGRVVNVVNAADATEEVLMRAAYGLTDVSAAS”, “not soluble”.
In the case of “MSLITACPRPCAWRSYALGLGLLPLAAQAEFLADSSAHLDLRNFYQLRDYRQHDAPQSQAGNWSQGFVLRLQSGFTGGPLGFGLDATGLLGVKLDSGRGRSNDGTLPFGANSKEPVDDYSHLGLTAKLRYSQTQLQVGILMPQLPVAFRDDVRLLPQTFDGALLTSSEIEGLTLTAGQLWKSRTRESAGSDDMYIMGRDKAHASDEFNLAGATYAFTPRLSASYYYGQLKDIYRQHYLGLLHTLPLGEGLSLRSDLRYFDSGEDGAAISGPVDNRNLNAMLTLRAGAHAFGIGVQKMIGNDAFPVLNGYTTPYVANLMAYQTFTRPQEKSWQLRYDYDFAGLGLPGLNLMTRYVQGRDIDRGAGRADDSEWERNTDLSYVIQSGPLKSVALKWRNITYRSRYGADLDENRFIVNYTLKLWEGHHHHHH”, the “soluble on expression in E. coli” value is “soluble”.
“MGNALVKKEPPPPVVLVPPLFDYPPLSARTRMLESSYNLLFGKLALRCLFEDYFEEANRFTGKFLLKPTDDPHVDLVASVSGAVDGRVEGDFVGNAEFRWQSDVDDPHTFVDLSVSTSNPVLLMRSSAYYPKYGIGAFAVYPLISKITGKSSEEYRIMGLRYGSTNLSVGATVTPFSANNELPKHAWLVSKMGSLTVGVQYEPLHGSKDLAKYTDPRNWSCAAGYGVGSQSPLTPSFNIGIELARSSQFIASFYQHVVVQRRVQNPFEENQVVGITNYIDFGFELQSRVDDSKTPPNAPDSLLQVAASWQANKNFLLKGKVGAHSSTLSLAFKSWWKPSFAFNISATTNHRTGNVQCGFGLRVDNLREASYQRADPNFVMLTPNKEHLAEGIVWKMGKRPMYQADVDAENFSELPKELRPSQKIL”: the “soluble on expression in E. coli” value is “soluble”.
As to “MHHHHHHSSGVDLGTENLYFQSMTLESMNPQVKAVEYAVRGPIVLKAGEIELELQRGIKKPFTEVIRANIGDAQAMGQQPITFLRQVMALCTYPNLLDSPSFPEDAKKRARRILQACGGNSLGSYSASQGVNCIREDVAAYITRRDGGVPADPDNIYLTTGASDGISTILKILVSGGGKSRTGVMIPIPQYPLYSAVISELDAIQVNYYLDEENCWALNVNELRRAVQEAKDHCDPKVLCIINPGNPTGQVQSRKCIEDVIHFAWEEKLFLLADEVYQDNVYSPDCRFHSFKKVLYEMGPEYSSNVELASFHSTSKGYMGECGYRGGYMEVINLHPEIKGQLVKLLSVRLCPPVSGQAAMDIVVNPPVAGEESFEQFSREKESVLGNLAKKAKLTEDLFNQVPGIHCNPLQGAMYAFPRIFIPAKAVEAAQAHQMAPDMFYCMKLLEETGICVVPGSGFGQREGTYHFRMTILPPVEKLKTVLQKVKDFHINFLEKYA”, the “soluble on expression in E. coli” value is listed as “soluble”.
The same measure for “MNTLSSLLLALQQADSFFPGGAVAWSWGLETLVADGRLGAGERVTARRRQRAVRLDRSAAVRGFVEGQLRHRWHSFDRVFLLAAWNAADDVSALTNLDAQIEALTLAKELRQGSRRVGQALLGVHVALGTPGAAAYQQQVRAGNTPGHLPVLQGLLWNRLGMHREHCQLAAAHGLCTGLVSAAVRLGVMGHIDAQRVLTDIQPLITELLALEPPEPEDACGFTPMAEIAVMRHETQDLRLFANLEHHHHHH”: “soluble”; for “MSLRIKLLLRFKPPFLIPYNYPRYLYSFLLRAIELADKEVAGRIHNNKRDIKFVASKFMPIGSTKRLEQGLLVESGTVELYVGSTEDIILESLVRGLGQGVGMLHVRGQRLLSYEAELEEIPKHLSGKRFKTLSPVSVYHNNPPNGFRQWDLSPVGPPNSPFENEPKVWKELLFENLKSKYMMVYGEPYEGSFDIRVLTKKPKSRRLLVKIDERTGKPIYARVWEFDFKMWGEEELLRVAYELGIGMRNPHGFGMVEVIEGHHHHHH”: “soluble”.
The same measure for “KLVFLHGLGQDKTAWNDVIAALPHYDCLALDLFDEGKMPENFTTLVEQVATELKGIEEDFVLIGLSLGAMLALALSDYTFPHIKGFIVSGAQHDLKRSFLYKLQLLGLQLLPKSFFKKQGVKKDSFLAFSKSLSTLDLRETIRQIDIPALILCGQKDKPNLLPARKIAELIPNARLSVIKKGGHLLNTKMPIVFAKEITDFLK”: “not soluble”; for “MGSDKIHHHHHHMGRAPTMEADMRILLLCWRDTTHPQGGGSERYLEHIAKYLVASGHEVIFRTARHTDASRRAVRDGVEYQYAGGKYSVYVRAAVAQLMGRLGVGRLRGVDVAVDTQNGIPFFARVFSGVPTILLTHHCHRRQWDVAGPLIARLGWFIESKVSPWVHRGVRYVTVSEPSRDELVELGVPAGNITIVRNGIDDPPAPMNLPPVTRPHLVTLSRLVPHKQIEHAIDVVRELDGVVLDIIGSGWWEPQLREYARDVADRVIFHGQVAEDHKHALLAQAAVHVMPSRKEGWGLAVIEAGQHGVPTVGYSHSGGLRDSVRGGGVLVETPAQLTCAIRQLLADQRYRDELGRRAYGFASTFSWEDTGREFLRVIAQPQIPAAAHSTKQPNPR”: “not soluble”; for “MGSDKIHHHHHHMTTPLLEINDLVVSYQTAKGLVHAVNNVSLEVHPGQITAIVGESGSGKSTTAQAVIGLLADNAEVDSGRISFNGRSLVGLNAREWKNVRGTKIGLIPQDPNNSLNPVKTIGASVGEGLAIHKRGTAAERKKKVIELLERVGIDNPEVRYDQYPHELSGGMKQRALIAAAIALEPELIIADEPTSALDVTVQKIILDLLEDMQRELGMGILFITHDLAVAGDRADRIVVMQKGEVRESGYAASVLTDPQHEYSKKLLADAPSLTIGEIPTRVPAVDPEVAQAKGPLLVVDKFRKEHQRGKEGAFVAANDISFEVLPGTTHAIVGESGSGKTTLGRAIAMFNTPTSGSISVSGKDITNLSKAQQRELRQQIQLVYQNPYSSLDPRQTIGSTIAEPLRNFTKVSKQEADEKVAHYLELVALDPALATRRPRELSGGQRQRVAIARAMILEPELVVFDEAVSALDVTVQAQILRLLDDLQRELGLTYVFISHDLAVVREISDTVSVMSRGNQVELGKTAEVFNNPQTDFTRRLIDAIPGSRYRGGELNLGL”: “not soluble”.
The same measure for “MKRKPAVAGYFYPERKDELYSLLSSFAIPEQHVSGTIIGAVVPHAGIIYSGRTAMYSYRAIEKSAVRDFVIIGPNHRPLTPYASLYPEGEWSTPLGDALINDRMAEALYRDSNYIVKDEESHLMEHSVEVQIPFLQYLFGDGFRFVPVILGDQEIDVARDIGEAIMKIEDPFIFIASSDFTHYEDAKRVEKKDMDLISAILTLDLDKFYSVLEKENVTACGYGAIAALMYYTKKRGGRMIFLNHSNSGDVTGDYSEVVGYASLVSVIPLEHHHHHH”: “soluble”; for “MARKKTITKEQILTAAYEVVATEGFSKFTARNIANKMKCSTQPIYLEFKNMDDLRDALFQKIHKYLAKEVFPVKHTGNTIVDLALNYIHFATSESKLYRALYLEEYGGGKKMQEFSYHYFTEAVKADPEYANLNDVQIDSLHMGTWVVATGVAALMTSGIIHPSEEQIIHLMKDSIEAILERDEPIDIDL”: “soluble”; for “MDKELNPSIGDYTGRTVDTLQNAVYIRLMTPLGSWWADKTLGSLLHLLQREKDLQRVSLLAEQYADEALQPIVKSGRADKITVRAEQPHDGRLILHIRMDTAAGGFDYRHEVPVI”: “not soluble”.
